# Measurements published in the RNAGym collection of RNA variant scans (doi:10.7554/elife.80360).
# B1: HDV Ribozyme (parent)
# chain: GGCCGGCAUGGUCCCAGCCUCCUCGCUGGCGCCGGCUGGGCAACAUUCCGAGGGGACCGUCCCCUCGGUAAUGGCGAAUGGGACCCA
# Variants of: B1
# Experiment: self-cleavage, relative activity (ratio to wild type); higher = more cleavage; co-transcriptional
row,Variant,self-cleavage
1,U12G G28A,0
2,C61G C64A,0.582
3,C32G C61U,0.026
4,U27C C36U,0.404
5,U23G A56G,0.787
6,G28A C64G,0.108
7,G35U A87U,0.451
8,G10C C85G,0.76
9,U27A G53A,0.646
10,G38U C61U,0.174
11,U23A C86G,0.85
12,G2C U69C,0.175
13,G52C C61A,0.857
14,C30G C64U,0.126
15,G55U U69A,0.869
16,G2A G35A,0.0569
17,C26A G38A,0.153
18,U47G G50A,0.957
19,C14A U37A,0.0405
20,C15G C49A,0.519
21,G5C G28A,0.104
22,U20C U79G,0.185
23,G5U G55A,0.467
24,G10U A78G,0.449

row,Variant,self-cleavage
1,G25A G54A,0.242
2,G11U G59C,0.297
3,G67C G81A,0.369
4,U37A G73A,0.0346
5,U27G G54A,0.578
6,G68A A83U,0.424
7,U46C G59A,0.776
8,G35C G55U,0.0615
9,C75U C86A,0.111
10,C62A U69G,1.03
11,C84U A87C,0.749
12,G6C U47C,0.453
13,U12G C36A,0.156
14,G82A A83U,0.376
15,U23C C62G,0.987
16,G11C U60A,0.0831
17,G11U U69G,0.309
18,C22U G38C,0.122
19,G25C G35C,0.115
20,C15U G50U,0.991
21,U20G C30G,0.0554
22,U23G C64U,0.61
23,G6A G52U,0.694
24,C18A C64G,0.0678

row,Variant,self-cleavage
1,C62U U72A,0.441
2,G1U C36G,0.306
3,G1A A42G,0.115
4,G40C G73U,0.233
5,A78G G82C,0.0519
6,U60A U65C,1.08
7,C3U G76U,0.973
8,G25A C75U,0.0923
9,G53U A87U,0.969
10,U23G G54C,0.598
11,C4U U23G,0.302
12,C66A U69C,1.1
13,C13A A70U,0.0405
14,G53A C64A,0.639
15,G39C G76C,0.514
16,C33G C61U,0.212
17,C44G C85U,0.892
18,G68U A77U,0.578
19,A43C A83G,0.0923
20,C63A C85A,0.618
21,G6C C18G,0
22,G31A C32G,0.198
23,U37C A42G,0.795
24,C21A C84A,0

row,Variant,self-cleavage
1,G39A C57U,0.665
2,C84U C85G,0.923
3,G50U C61U,0.59
4,G31C C75U,0.111
5,G68C C86A,1.1
6,G1C C21G,0
7,C75U A83U,0.199
8,C44A G54A,0.759
9,U27A C32A,0.0604
10,G17A G34A,0.117
11,C13G A83G,0.0361
12,G34U A42C,0.0963
13,G35U G50C,0.443
14,G39C C84G,0.0462
15,C14A U23G,0.222
16,C22A A78C,0.0692
17,A16U G80A,0.812
18,A43C A78C,0.0723
19,C58G C62U,0.73
20,C7G G67U,0.302
21,C18U G28U,0.0573
22,G2U C19G,0
23,G28A A78U,0.0308
24,G17A A45G,0.755

row,Variant,self-cleavage
1,U23G C57A,0.656
2,U37A A70C,0.0639
3,U20A G80U,0.0141
4,G59A A83C,0.554
5,G5U C64A,0.499
6,C19G G55U,0.04
7,U27G U47G,1.27
8,A51C G81C,0.193
9,U12C G73A,0.289
10,U9A G40U,0.897
11,G29C C86U,0.0739
12,G29U C62A,0.0773
13,C14U G82C,0.415
14,C15G A71U,0.489
15,G29C G39A,0.0583
16,G40C G82U,0.0978
17,G1U U20A,0.289
18,G80U G82A,0.0297
19,U9G C63U,1.07
20,A70U G82A,0.469
21,A8C C66G,0.997
22,C4G C33A,0
23,G81C C85G,0.128
24,A45U A51C,0.796

row,Variant,self-cleavage
1,U46A A70G,1.01
2,C30A C63G,0.251
3,C15U G28C,0.0405
4,C30A U46G,0.256
5,G11C U20A,0.0978
6,C64U A83C,0.332
7,A51C C85U,0.898
8,C62U C66A,0.815
9,G10C G55U,0.831
10,C30G G67C,0.0528
11,U23A C41U,1.14
12,G31U U79A,0.148
13,G31A C84A,0.326
14,C22A G29C,0.0449
15,G5C C33U,0.386
16,G53U C61A,1.02
17,C3G C18U,0.04
18,C3G U23A,0.929
19,U37G G50A,0.113
20,U20G C86A,0.237
21,C62U G76U,1.06
22,G28C G76C,0.136
23,G35C U72A,0
24,C66G A70C,0.758

row,Variant,self-cleavage
1,G39A G55C,0.443
2,A45C U60G,0.63
3,U65C G80U,0.106
4,G6U C63G,0.268
5,G59A G82A,0.466
6,G34U A45C,0.117
7,C3A U47G,0.237
8,G5C A42U,0
9,G53A U79C,0.376
10,C26A G50C,1.16
11,C3G U12G,0.32
12,G1A G76A,0.462
13,U46G,0.793
14,C4A U60G,0.0449
15,G5U G29C,0
16,C58U C86A,1.01
17,C19U C33G,0.0923
18,C64U G76U,1.15
19,C63U C85U,1.01
20,G28U C49G,0.116
21,G29A A56G,0.224
22,C26U A56C,1.12
23,C3U C32A,0.053
